Results as given in patent publication US20230051715A1 (MABWELL THERAPEUTICS, published 2023).
Each block holds one binder with its values, some of them ahead of it.

Legend:
[1] = target: T1, human C1s deletion mutant 3 (NHCΔ33) (human, UniProt P09871 16-404); assay: ELISA, C1s fragment coated on plate; hz2-8(H1L2 G80A/T82A), second of the two values
T1 construct: C-terminal 6xHis tag; also called human C1s (NHCΔ33); C1s (NHCΔ33)
T1 sequence: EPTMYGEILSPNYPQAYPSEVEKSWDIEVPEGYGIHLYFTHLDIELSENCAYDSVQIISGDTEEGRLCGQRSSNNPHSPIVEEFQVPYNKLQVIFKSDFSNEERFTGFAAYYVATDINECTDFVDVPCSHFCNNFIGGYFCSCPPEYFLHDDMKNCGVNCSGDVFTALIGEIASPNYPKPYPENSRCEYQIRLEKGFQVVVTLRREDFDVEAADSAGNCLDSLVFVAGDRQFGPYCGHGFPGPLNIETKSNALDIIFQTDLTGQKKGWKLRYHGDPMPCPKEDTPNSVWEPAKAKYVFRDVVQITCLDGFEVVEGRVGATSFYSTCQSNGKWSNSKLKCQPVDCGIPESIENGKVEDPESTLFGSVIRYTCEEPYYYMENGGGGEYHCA
Description: ELISA was carried out by first coating 96-well plates with 200 ng/well of full-length or truncated C1s proteins overnight. The next morning, plates were blocked with SuperBlock T20 blocking buffer (Thermo Scientific 37536) for 1 h with gentle shaking. Then, various concentrations of anti-C1s antibodies diluted in SuperBlock T20 blocking buffer were added to the plates and incubated for 1 h with gentle shaking. Mouse IgG (Sigma-Aldrich 15381) and human IgG1 (BioXCell BP0297) were used as negative controls. The plates were washed before incubating with HRP conjugated secondary antibodies diluted in SuperBlock T20 blocking buffer (goat anti-mouse IgG (H+L) cross-adsorbed secondary antibody HRP (Invitrogen G-21040) or goat anti-human IgG antibody, HRP conjugate (Millipore AP309P)) for 1 h with gentle shaking. At last, the plates were washed and color developed with ELISA liquid HRP substrate (Sigma-Aldrich), followed by stopping the reaction with addition of 1M H₂SO₄ in the same volume as the ELISA liquid substrate. Bound antibody was measured by absorbance at OD₄₅₀ₙₘ.
Binding of various anti-C1s antibodies to human C1s (NHCΔ33) (SEQ ID NO: 111) was carried out by ELISA as described in Example 4, and results are shown in FIG. 6A.

[2] = target: T2, full-length human C1s (produced in house) (human, UniProt P09871 16-688); assay: BLI (Octet RED96e), antibody on AHC biosensor; C1s Species: Human; R^2 0.9997
T2 construct: Called full-length; Partly auto-cleaved at R422-I423 on blots; also called HuC1s; Hu C1s
T2 sequence: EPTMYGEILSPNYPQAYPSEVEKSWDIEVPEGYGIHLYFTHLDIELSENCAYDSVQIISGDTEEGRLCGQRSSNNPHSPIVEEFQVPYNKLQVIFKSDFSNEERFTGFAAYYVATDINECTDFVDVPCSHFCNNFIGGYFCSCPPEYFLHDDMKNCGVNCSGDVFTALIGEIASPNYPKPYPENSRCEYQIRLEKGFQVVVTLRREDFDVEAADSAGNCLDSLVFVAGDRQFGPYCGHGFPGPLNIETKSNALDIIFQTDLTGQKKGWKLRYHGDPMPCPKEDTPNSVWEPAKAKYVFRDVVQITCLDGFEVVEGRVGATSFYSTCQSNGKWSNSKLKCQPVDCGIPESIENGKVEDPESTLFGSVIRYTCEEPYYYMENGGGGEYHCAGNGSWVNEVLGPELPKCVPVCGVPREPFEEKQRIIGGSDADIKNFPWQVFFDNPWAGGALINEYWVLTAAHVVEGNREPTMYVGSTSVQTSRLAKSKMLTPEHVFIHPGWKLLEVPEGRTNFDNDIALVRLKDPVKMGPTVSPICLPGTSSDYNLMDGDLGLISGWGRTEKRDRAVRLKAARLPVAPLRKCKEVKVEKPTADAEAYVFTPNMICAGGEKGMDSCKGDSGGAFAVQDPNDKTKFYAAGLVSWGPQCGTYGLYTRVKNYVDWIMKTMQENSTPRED
Excerpt: (§1) At last, analyte was dissociated in 1×KB for 360 sec. Data analysis was done using OCTET® Data Analysis HT Software (Sartorius AG).

[3] = target: T3, rat C1s (produced in house) (rat, UniProt Q6P6T1 16-688); assay: BLI (Octet RED96e), antibody on AHC biosensor; C1s Species: Rat; R^2 0.9718
T3 construct: also called RaC1s
T3 sequence: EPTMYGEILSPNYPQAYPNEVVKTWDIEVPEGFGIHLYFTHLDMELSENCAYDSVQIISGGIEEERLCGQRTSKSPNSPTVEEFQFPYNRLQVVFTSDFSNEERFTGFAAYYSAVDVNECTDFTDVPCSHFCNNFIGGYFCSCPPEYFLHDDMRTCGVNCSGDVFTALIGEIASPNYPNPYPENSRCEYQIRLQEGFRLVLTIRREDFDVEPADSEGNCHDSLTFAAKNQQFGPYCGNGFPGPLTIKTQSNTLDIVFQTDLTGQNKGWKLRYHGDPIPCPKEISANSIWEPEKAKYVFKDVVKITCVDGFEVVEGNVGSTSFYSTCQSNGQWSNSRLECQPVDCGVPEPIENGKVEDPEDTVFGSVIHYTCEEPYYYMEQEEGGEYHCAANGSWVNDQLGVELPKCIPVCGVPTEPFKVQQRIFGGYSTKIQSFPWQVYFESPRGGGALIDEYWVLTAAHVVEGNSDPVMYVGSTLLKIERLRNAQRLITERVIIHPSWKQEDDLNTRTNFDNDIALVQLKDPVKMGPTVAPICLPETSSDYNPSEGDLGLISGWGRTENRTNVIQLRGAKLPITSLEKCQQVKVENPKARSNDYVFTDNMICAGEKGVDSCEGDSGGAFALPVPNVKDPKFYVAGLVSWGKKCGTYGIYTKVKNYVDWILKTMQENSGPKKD
Excerpt: as §1

[4] = target: T2, full-length human C1s (produced in …); assay: BLI (Octet RED96e), antibody on AHC biosensor; C1s Species: Human; R^2 0.9999
Excerpt: as §1

[5] = target: T3, rat C1s (produced in house); assay: BLI (Octet RED96e), antibody on AHC biosensor; C1s Species: Rat; R^2 0.9776
Excerpt: as §1

EC50 [1]: 0.015 µg/mL
Kd [2]: 0.7 nM
koff [2]: 0.0003 s⁻¹
kon [2]: 430000 M⁻¹ s⁻¹
Kd [3]: 16 nM
koff [3]: 0.0012 s⁻¹
kon [3]: 75000 M⁻¹ s⁻¹
B1: Anti-C1s antibody hz2-8 (H1L2 G80A/T82A) (antibody, V domains shown)
VH: QVQLVQSGAEVKKPGASVKVSCKASGFNIKEYYMHWVRQAPEQGLEWMGWIDPENADAIYAQKFQGRVTITADTSTNTAYMELSSLRSEDTAVYYCARSRLFFAYWGQGTLVTVSS
VL: DIQMTQSPKSLSASVGDRVTITCRASQDVRTALDWYQQKPGQSPKLLIYSASYRYSGVPSRFSGSGSGTDFTLTISSLQPEDFATYYCQQQYTTPYTFGQGTKLEIKR
notes: Humanized variant with G80A and T82A in HC CDR2 (already in the entry), human IgG1 / kappa

Kd [4]: 0.12 nM
koff [4]: 4.6e-05 s⁻¹
kon [4]: 390000 M⁻¹ s⁻¹
B2: Anti-C1s antibody hz2-7(H1L2) (antibody, V domains shown)
VH: EVQLLESGGGLVQPGGSLRLSCAASGFTFSNYFMNWVRQAPGKGLEWVSEIRLKFTNYATHYADSVKGRFTISRDDSKSTLYLQMNSLRAEDTAVYYCTRDYGSRNGYFDYWGQGTLVTVSS
VL: DIVMTQTPLSLPVTPGEPASISCRSSKSLLHSNGNTFLYWFLQKPGQSPQLLIYRMSNLASGVPDRFSGSGSGTDFTLKISRVEAEDVGVYYCMQHLEYPYTFGGGTKLEIKR
notes: Humanized, human IgG1 / kappa; also called hz2-7(1L2)

Kd [5]: 17 nM
koff [5]: 0.0012 s⁻¹
kon [5]: 68000 M⁻¹ s⁻¹
B3: Anti-C1s antibody 2-8 (antibody, V domains shown)
VH: EVQLQQSGAELVRPGALVKLSCKASGFNIKEYYMHWVKQRPEQGLEWIGWIDPENGDTIYDPKFQGKASITADTSSNTAYLQLSSLTSEDTAVYYCARSRLFFAYWGQGTLVTVSA
VL: DIVMTQSHKFMSTSVGDRVSFTCKASQDVRTAVDWYQQKPGQSPKLLIYSASYRYTGVPDRFTGTGSGTDFTFTISSVQAEDLAVYFCQQQYTTPYTFGGGTKLEIKT
notes: the HC/LC entries may hold it too; also called clone 2-8
